The supplement of paper PMC7877785
± gives the uncertainty stated by the source.

Test: self-splicing fitness, log relative to wild type (ln ratio); higher = more splicing; Tetrahymena group I intron in knt gene, E. coli kanamycin selection, DiMSum; sequences stand for … in CUCUCU…GGAGGGAAAAGUUAUCAGGCAUGCACCUGGUAGCUAGUCUUUAAACCAAUAGAUUGCAUCGGUUUAAAAGGCAAGACCGUCAAAUUGCGGGAAAGGGGUCAACAGCCGUUCAGUACCAAGUCUCAGGGGAAACUUUGAGAUGGCCUUGCAAAGGGUAUGGUAAUAAGCUGACGGACAUGGUCCUAACCACGCAGCCAAGUCCUAAGUCAACAGAUCUUCUGUUGAUAUGGAUGCAGUUCACAGACUAAAUGUCGGUCGGGGAAGAUGUAUUCUUCUCAUAAGAUAUAGUCGGACCUCUCCUUAAUGGGAGCUAGCGGAUGAAGUGAUGCAACACUGGAGCCGCUGGGAACUAAUUUGUAUGCGAAAGUAUAUUGAUUAGUUUUGGAGUACUCGUGGUCG
Summary of the method: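 Pooled colonies went to amplicon sequencing on an Illumina HiSeq 2500 after six replicate transformations. The plates were LB agar with 100 μg/mL carbenicillin, 50 μM IPTG and 0.2% rhamnose, with or without 25 μg/mL kanamycin, incubated overnight at 37°C or 30°C. The E. coli BL21(DE3) library had all eight P1ex-region intron nucleotides randomised, the intron placed in the knt kanamycin-resistance gene on pET-22b(+). DiMSum fitness is the error-weighted combination of replicate fold changes, kanamycin against none, normalised to wild type.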

Sequence | self-splicing fitness (ln) (30 °C) | self-splicing fitness (ln) (37 °C)
CCUAAGCAAUAUUACGUUGU | -3.37 ± 0.16 | -2.15 ± 0.15
CCUCAGCAAUAUUACGACAA | -1.92 ± 0.17 | -2.31 ± 0.25
CCUCAGCAAUAUUACGAGCA | -3.04 ± 0.26 | -2.87 ± 0.25
CCUCAGCAAUAUUACGAUUC | -3.88 ± 0.43 | -2.44 ± 0.49
CCUCAGCAAUAUUACGCACA | -3.09 ± 0.48 | -2.02 ± 0.26
CCUCAGCAAUAUUACGCCAG | -3.22 ± 0.16 | -0.883 ± 0.13
CCUCAGCAAUAUUACGCCCC | – | -1.39 ± 0.35
CCUCAGCAAUAUUACGCGGA | -2.68 ± 0.22 | -3.28 ± 0.26
CCUCAGCAAUAUUACGCGGU | -3.37 ± 0.19 | -2.98 ± 0.33
CCUCAGCAAUAUUACGCUAG | -4.45 ± 0.38 | -1.04 ± 0.22
CCUCAGCAAUAUUACGGCAC | -3.55 ± 0.15 | -2 ± 0.17
CCUCAGCAAUAUUACGGCCG | -2.11 ± 0.1 | -0.442 ± 0.11
CCUCAGCAAUAUUACGGCGG | -3.33 ± 0.15 | -3.35 ± 0.35
CCUCAGCAAUAUUACGGCUU | -1.94 ± 0.16 | -2.28 ± 0.21
CCUCAGCAAUAUUACGGGGG | -4.13 ± 0.28 | -2.9 ± 0.23
CCUCAGCAAUAUUACGUAUU | -4.06 ± 0.24 | -2.61 ± 0.21
CCUCAGCAAUAUUACGUCAU | -3.03 ± 0.13 | -1.77 ± 0.18
CCUCAGCAAUAUUACGUCCA | -2.26 ± 0.14 | -3 ± 0.29
CCUCAGCAAUAUUACGUGGA | -3.84 ± 0.18 | -3.02 ± 0.2
CCUGAGCAAUAUUACGAACU | -3.4 ± 0.13 | -2.42 ± 0.17
CCUGAGCAAUAUUACGAAUA | -2.69 ± 0.38 | -1.35 ± 0.21
CCUGAGCAAUAUUACGAAUC | -3.69 ± 0.33 | -2.34 ± 0.43
CCUGAGCAAUAUUACGACAC | -2.49 ± 0.49 | -2.19 ± 0.28
CCUGAGCAAUAUUACGAGGU | -2.72 ± 0.17 | -1.99 ± 0.15
CCUGAGCAAUAUUACGAUCA | -3.05 ± 0.32 | -2.42 ± 0.24

Sequence | self-splicing fitness (ln) (30 °C) | self-splicing fitness (ln) (37 °C)
CCUGAGCAAUAUUACGAUGU | -1.94 ± 0.084 | -1.71 ± 0.098
CCUGAGCAAUAUUACGAUUC | -3.56 ± 0.27 | –
CCUGAGCAAUAUUACGCCCA | -3.82 ± 0.47 | -2.05 ± 0.34
CCUGAGCAAUAUUACGCCUC | -2.22 ± 0.29 | -1.88 ± 0.3
CCUGAGCAAUAUUACGCCUG | -3.03 ± 0.26 | -2.47 ± 0.25
CCUGAGCAAUAUUACGGACC | – | -3.02 ± 0.43
CCUGAGCAAUAUUACGGAUC | -2.1 ± 0.17 | -2.53 ± 0.22
CCUGAGCAAUAUUACGGCGC | -4.1 ± 0.28 | –
CCUGAGCAAUAUUACGGGGU | -3.44 ± 0.24 | -3.06 ± 0.27
CCUGAGCAAUAUUACGGUCC | -1.71 ± 0.36 | -1.22 ± 0.43
CCUGAGCAAUAUUACGUAGG | -2.55 ± 0.15 | -2.24 ± 0.32
CCUGAGCAAUAUUACGUAUG | -2.38 ± 0.11 | -1.56 ± 0.11
CCUGAGCAAUAUUACGUCUG | -2.44 ± 0.14 | -1.4 ± 0.13
CCUUAGCAAUAUUACGAAGC | -3.24 ± 0.3 | -1.56 ± 0.32
CCUUAGCAAUAUUACGACAU | -3.677 ± 0.028 | -2.85 ± 0.043
CCUUAGCAAUAUUACGACCG | 0.294 ± 0.11 | -0.348 ± 0.18
CCUUAGCAAUAUUACGACCU | -2.79 ± 0.2 | -1.77 ± 0.29
CCUUAGCAAUAUUACGACGU | -2.25 ± 0.18 | -1.9 ± 0.23
CCUUAGCAAUAUUACGAUUC | -3.68 ± 0.25 | -3.28 ± 0.47
CCUUAGCAAUAUUACGCUCA | -3 ± 0.21 | -1.94 ± 0.3
CCUUAGCAAUAUUACGGACU | -2.41 ± 0.19 | -2.89 ± 0.43
CCUUAGCAAUAUUACGGAUG | -1.72 ± 0.064 | -0.271 ± 0.08
CCUUAGCAAUAUUACGGAUU | -3.31 ± 0.22 | -2.38 ± 0.36
CCUUAGCAAUAUUACGGCAG | -1.83 ± 0.12 | -2.73 ± 0.2
CCUUAGCAAUAUUACGGCCA | -3.46 ± 0.41 | -1.69 ± 0.18

Sequence | self-splicing fitness (ln) (30 °C) | self-splicing fitness (ln) (37 °C)
CCUUAGCAAUAUUACGGCCG | -1.85 ± 0.23 | -0.27 ± 0.35
CCUUAGCAAUAUUACGGGAG | -3.19 ± 0.23 | -3.67 ± 0.39
CCUUAGCAAUAUUACGGUGA | -3.63 ± 0.35 | -2.91 ± 0.27
CCUUAGCAAUAUUACGUAGC | -2.7 ± 0.18 | -1.8 ± 0.21
CCUUAGCAAUAUUACGUAGG | -2.83 ± 0.14 | -2.83 ± 0.18
CCUUAGCAAUAUUACGUAUA | – | -3.25 ± 0.37
CCUUAGCAAUAUUACGUCUC | – | -2.63 ± 0.3
CCUUAGCAAUAUUACGUGAC | -3.61 ± 0.28 | -2.68 ± 0.28
CCUUAGCAAUAUUACGUUUC | -1.94 ± 0.18 | -1.11 ± 0.46
CGAAAGCAAUAUUACGACGU | -0.439 ± 0.067 | 0.0287 ± 0.078
CGAAAGCAAUAUUACGAGCU | -2.9 ± 0.12 | -1.59 ± 0.13
CGAAAGCAAUAUUACGAGUC | -2.98 ± 0.18 | -2.22 ± 0.35
CGAAAGCAAUAUUACGAGUG | -0.203 ± 0.049 | 0.0139 ± 0.065
CGAAAGCAAUAUUACGAUCA | -0.312 ± 0.1 | 0.699 ± 0.13
CGAAAGCAAUAUUACGAUUA | -1.48 ± 0.11 | -1.06 ± 0.13
CGAAAGCAAUAUUACGCCAC | -2.32 ± 0.37 | –
CGAAAGCAAUAUUACGCCAU | -3.31 ± 0.45 | -2.78 ± 0.43
CGAAAGCAAUAUUACGCCCA | -0.283 ± 0.12 | 0.0973 ± 0.15
CGAAAGCAAUAUUACGCCCU | -0.989 ± 0.15 | 0.0487 ± 0.19
CGAAAGCAAUAUUACGCUGU | -3.2 ± 0.25 | -2.75 ± 0.33
CGAAAGCAAUAUUACGCUUA | -2.25 ± 0.16 | -1.24 ± 0.14
CGAAAGCAAUAUUACGGACA | -0.806 ± 0.074 | 0.186 ± 0.091
CGAAAGCAAUAUUACGGAGA | -2.59 ± 0.29 | -1.58 ± 0.37
CGAAAGCAAUAUUACGGCUC | -2.88 ± 0.18 | -1.73 ± 0.21
CGAAAGCAAUAUUACGGGCC | -3.07 ± 0.23 | -3.07 ± 0.21

Sequence | self-splicing fitness (ln) (30 °C) | self-splicing fitness (ln) (37 °C)
CGAAAGCAAUAUUACGGUUC | -3.34 ± 0.16 | -2.33 ± 0.17
CGAAAGCAAUAUUACGGUUU | -2.51 ± 0.095 | -1.51 ± 0.11
CGAAAGCAAUAUUACGUGAC | -3.45 ± 0.12 | -2.22 ± 0.13
CGAAAGCAAUAUUACGUGGC | -0.949 ± 0.12 | -3.21 ± 0.32
CGACAGCAAUAUUACGAAGC | -2.91 ± 0.24 | -3.43 ± 0.35
CGACAGCAAUAUUACGACAG | -0.3 ± 0.069 | 0.0609 ± 0.084
CGACAGCAAUAUUACGAGAC | -4.34 ± 0.3 | -2.57 ± 0.26
CGACAGCAAUAUUACGAGAG | -3.42 ± 0.12 | -1.95 ± 0.11
CGACAGCAAUAUUACGAUCA | -0.455 ± 0.07 | 0.458 ± 0.096
CGACAGCAAUAUUACGCGGA | -2.18 ± 0.12 | -1.9 ± 0.089
CGACAGCAAUAUUACGCGGC | -3.55 ± 0.16 | -2.96 ± 0.26
CGACAGCAAUAUUACGCUGC | -3.02 ± 0.25 | -2.24 ± 0.26
CGACAGCAAUAUUACGGGUA | -4.49 ± 0.28 | -1.49 ± 0.12
CGACAGCAAUAUUACGGGUG | -0.537 ± 0.043 | 0.0253 ± 0.063
CGACAGCAAUAUUACGGUAC | -4.52 ± 0.36 | -2.09 ± 0.2
CGACAGCAAUAUUACGUGUG | -2.2 ± 0.067 | -1.1 ± 0.07
CGAGAGCAAUAUUACGAAAU | -2.81 ± 0.24 | -2.97 ± 0.37
CGAGAGCAAUAUUACGAGGC | -1.83 ± 0.24 | -0.565 ± 0.48
CGAGAGCAAUAUUACGAGUU | -3.56 ± 0.34 | -2.18 ± 0.34
CGAGAGCAAUAUUACGGAAU | -3.06 ± 0.19 | -3.23 ± 0.42
CGAGAGCAAUAUUACGGCAC | -3.72 ± 0.3 | -2.36 ± 0.23
CGAGAGCAAUAUUACGGGAC | -3.92 ± 0.18 | -1.87 ± 0.16
